Here are results for two substances from patent US9956260.

Where only a bound is given, the exact number is not on record here.

Experiment in all cases: cell-based or functional assay
One test addresses T1, caspase-3 (human) (UniProt P42574).
T1 sequence: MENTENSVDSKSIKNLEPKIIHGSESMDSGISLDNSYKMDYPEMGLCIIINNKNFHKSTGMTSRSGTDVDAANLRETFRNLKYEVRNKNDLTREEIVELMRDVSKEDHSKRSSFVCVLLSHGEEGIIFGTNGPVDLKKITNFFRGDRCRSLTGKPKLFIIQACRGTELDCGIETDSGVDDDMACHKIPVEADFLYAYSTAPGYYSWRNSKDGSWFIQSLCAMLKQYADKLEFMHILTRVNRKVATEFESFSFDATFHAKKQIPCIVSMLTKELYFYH

Test [1] concerns the target HIV-1 gp41 of WEAU 16-8 (primary virus) (HIV-1 (primary isolate WEAU 16-8)).
In test [2] the target is HIV-1 gp41 of NL4-3 (WT lab-adapted virus) (HIV-1 (NL4-3)).

Z-DEVD-FMK (peptide): in the test with caspase-3 (human), the decrease in CD4 T-cell death in HIV-infected HLACs worked out at 50% and the percentage of viable CD4 T cells in HIV-1-infected HLACs after 3 days (flow cytometry; inhibitors 20 µM each) turned out to be 50%.

enfuvirtide (T20) (peptide) displayed a viral infection of HLACs (p24gag FLAQ assay, day 9) in test [1] of 0.1 µg/mL. In test [2], this substance came in with a viral infection of HLACs (p24gag FLAQ assay, day 9) greater than 2 µg/mL and a viral infection of HLACs (p24gag FLAQ assay, day 9) (µg/ml (printed 'gi/ml')) of 10.
